Target: Aβ1-42 fibrils (UniProt P05067)
Assay: flow cytometry on beads; Aβ fibrils (1% biotinylated, 1 μM) immobilised on streptavidin Dynabeads, blocked with 10% milk; antibody dilutions in PBSB with 1% milk, 3 h, 25 °C; detected with goat anti-human Fc AF647; apparent affinity (EC50)

B1: crenezumab (variable domains grafted onto an IgG1 scaffold with a human Fc fragment) (antibody, V domains shown)
VH: EVQLVESGGGLVQPGGSLRLSCAASGFTFSSYGMSWVRQAPGKGLELVASINSNGGSTYYPDSVKGRFTISRDNAKNSLYLQMNSLRAEDTAVYYCASGDYWGQGTTVTVSS
VL: DIVMTQSPLSLPVTPGEPASISCRSSQSLVYSNGDTYLHWYLQKPGQSPQLLIYKVSNRFSGVPDRFSGSGSGTDFTLKISRVEAEDVGVYYCSQSTHVPWTFGQGTKVEIK
  EC50: 9 nM
